Publication PMC10516056
“And” between values parts separate entries of the source, which are not always exact repeats. Identical values can stand only once.

Tests used:
[1] = biological target: SPARTA heterodimer (TIR-APAZ/short pAgo complex) from Crenotalea thermophila (Crenotalea thermophila); assay: cryo-EM structure
[2] = biological target: SPARTA heterodimer (TIR-APAZ/short pAgo complex) from Crenotalea thermophila (Crenotalea thermophila); assay: mass photometry

## SPARTA heterodimer (TIR-APAZ/short pAgo complex) from Crenotalea thermophila
[1]
  stoichiometry N: 4
[2]
  stoichiometry N: 2 and 4
